What all share (assay): EMSA
One data set has as its target T1, DMP1 ΔMHR (human, UniProt Q9Y222 1-223).
T1 sequence: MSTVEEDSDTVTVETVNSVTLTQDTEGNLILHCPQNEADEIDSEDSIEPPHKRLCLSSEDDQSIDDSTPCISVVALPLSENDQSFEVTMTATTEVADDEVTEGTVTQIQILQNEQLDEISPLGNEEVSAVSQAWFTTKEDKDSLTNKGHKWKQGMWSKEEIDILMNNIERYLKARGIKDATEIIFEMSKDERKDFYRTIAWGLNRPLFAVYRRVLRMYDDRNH

The target of a further data set is T2, DMP1β (DMTF1 isoform β) (human, UniProt Q9Y222-2 1-272).
T2 sequence: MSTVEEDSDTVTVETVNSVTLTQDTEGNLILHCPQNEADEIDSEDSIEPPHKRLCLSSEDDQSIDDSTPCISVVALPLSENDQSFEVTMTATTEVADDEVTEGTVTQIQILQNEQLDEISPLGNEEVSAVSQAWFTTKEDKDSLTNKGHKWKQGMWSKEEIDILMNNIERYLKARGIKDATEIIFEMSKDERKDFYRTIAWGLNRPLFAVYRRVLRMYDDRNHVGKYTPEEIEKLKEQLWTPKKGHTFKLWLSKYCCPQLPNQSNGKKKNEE

Another data set has as its target T3, DMP1γ (DMTF1 isoform γ) (human, UniProt Q9Y222-3 1-285).
T3 sequence: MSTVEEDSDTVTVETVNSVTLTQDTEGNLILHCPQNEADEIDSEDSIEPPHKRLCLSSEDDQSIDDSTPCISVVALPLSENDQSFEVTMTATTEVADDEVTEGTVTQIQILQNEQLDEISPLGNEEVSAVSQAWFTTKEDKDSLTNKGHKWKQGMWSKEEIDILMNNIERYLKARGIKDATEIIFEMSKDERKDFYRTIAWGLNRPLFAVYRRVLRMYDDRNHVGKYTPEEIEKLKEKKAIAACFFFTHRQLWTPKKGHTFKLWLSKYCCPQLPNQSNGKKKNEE

A further data set concerns the target T4, DMP1α (DMTF1 isoform α) (human, UniProt Q9Y222 1-760).
T4 sequence: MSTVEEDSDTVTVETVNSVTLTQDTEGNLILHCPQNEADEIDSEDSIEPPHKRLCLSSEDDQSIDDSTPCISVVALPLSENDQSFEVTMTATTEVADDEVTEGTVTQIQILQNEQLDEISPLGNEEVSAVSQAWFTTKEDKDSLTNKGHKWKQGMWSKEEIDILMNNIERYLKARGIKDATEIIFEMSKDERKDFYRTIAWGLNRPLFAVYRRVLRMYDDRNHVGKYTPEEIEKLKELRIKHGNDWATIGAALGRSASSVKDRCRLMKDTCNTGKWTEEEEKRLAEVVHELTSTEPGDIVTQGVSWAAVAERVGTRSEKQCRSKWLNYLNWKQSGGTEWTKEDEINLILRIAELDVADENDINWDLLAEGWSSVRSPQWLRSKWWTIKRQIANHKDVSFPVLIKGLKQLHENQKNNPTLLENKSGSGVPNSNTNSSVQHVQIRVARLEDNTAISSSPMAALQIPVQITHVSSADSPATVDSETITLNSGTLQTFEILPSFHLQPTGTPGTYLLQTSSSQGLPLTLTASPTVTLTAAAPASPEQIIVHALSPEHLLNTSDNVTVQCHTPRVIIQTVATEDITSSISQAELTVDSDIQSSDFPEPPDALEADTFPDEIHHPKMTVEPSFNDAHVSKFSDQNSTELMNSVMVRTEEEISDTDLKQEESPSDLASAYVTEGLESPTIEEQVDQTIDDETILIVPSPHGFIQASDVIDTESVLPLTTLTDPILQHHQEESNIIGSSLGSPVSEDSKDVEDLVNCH

B1: human ARF promoter DMP1 site probe (dsDNA)
DNA 1: GTCAGGTGACGGATGTAGCTAGG
DNA 2: CCTAGCTACATCCGTCACCTGAC
For the molecule B1, the binding result is given as “no binding” in the data set with DMP1 ΔMHR, “no binding” with DMP1β (DMTF1 isoform β), “no binding” with DMP1γ (DMTF1 isoform γ) and “binds” in the data set with DMP1α (DMTF1 isoform α).

The values are drawn from paper PMC4687731.
